Experimental data: patent US20230129258A1, “HETEROTANDEM BICYCLIC PEPTIDE COMPLEXES” (BicycleTx Limited, priority 2019, published 2023)
Starred links: 1 amine or outer side, 2 acyl side, 3 side chain; linkers in the order of their positions; H or OH if unused. Positions of bridges follow the written chain, without caps; N, C: chain ends. Non-standard residues stand in square brackets, D forms with d. Chains are numbered I, II in the order given. No end group written: not given here. *: point of attachment. TATA = O=C(CC[*:1])N1CN(C(=O)CC[*:2])CN(C(=O)CC[*:3])C1; Dip = N[C@H](C(=O)O)C(c1ccccc1)c1ccccc1; d1Nal = N[C@H](Cc1cccc2ccccc12)C(=O)O; Hyp = O=C(O)[C@@H]1C[C@@H](O)CN1; hArg = N=C(N)NCCCC[C@H](N)C(=O)O; tBuAla = CC(C)(C)C[C@H](N)C(=O)O; Cba = N[C@@H](CC1CCC1)C(=O)O; dK(PYA) = not defined here; NMeA = CN[C@@H](C)C(=O)O; Nle = CCCC[C@H](N)C(=O)O; Pent4ynoyl = C#CCCC(=O)*; Mpa = O=C(O)CCS

Biological target: CD137 on Jurkat reporter cells (Promega kit CS196005) (UniProt Q07011)
Sequence (Q07011 24-255 limits assumed): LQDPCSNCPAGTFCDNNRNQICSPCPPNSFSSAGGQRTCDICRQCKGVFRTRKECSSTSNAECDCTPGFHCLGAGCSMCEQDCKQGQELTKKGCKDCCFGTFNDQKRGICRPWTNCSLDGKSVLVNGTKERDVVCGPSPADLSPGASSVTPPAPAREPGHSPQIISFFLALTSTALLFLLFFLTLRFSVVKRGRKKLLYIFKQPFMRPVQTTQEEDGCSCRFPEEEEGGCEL
Experiment: cell-based or functional assay

Row | Binder | Fold Improvement over BCY9173, EC50, PC3 [fold] | Fold Improvement over Emax (BCY9173), PC3 [fold] | EC50 (nM), PC3 co-culture [nM] | Emax (fold induction over background), PC3 (fold over background)
1 | BCY14051 (BCY8928: Ac-(SEQ ID NO: 11)-A; TATA; linker at dLys(PYA)4; BCY13919: A[HArg]D-(SEQ ID NO: 158); TATA; linker at N-terminus) peptide 1: AXDCXLVNPLCLXPDWXC peptide 2: CXPEXPYCFADPYXCA | 3.15 | 1.88 | – | –
2 | BCY13054 (linker I:4-I:11-I:18, II:1-II:8-II:15 via TATA; not fully specified (N-terminus, bridges); also: linker joins chain 1 to two chain 2 copies via PYA triazoles) peptide 1: A[hArg]DC[Hyp]LVNPLCL[Dip]P[dD]W[hArg]C peptide 2: Ac-C[tBuAla]PE[dK](Pent4ynoyl)PYCFADPY[Nle]CA | – | – | 0.07 | 36.5
3 | BCY13139 (linker I:4-I:11-I:18, II:1-II:8-II:15 via TATA; not fully specified (N-terminus); also: linker joins chain 1 to two chain 2 copies via PYA triazoles) peptide 1: A[hArg]DC[Hyp]LVNPLCLHP[dD]W[hArg]C peptide 2: [Mpa][tBuAla]EE[dK](Pent4ynoyl)PYCFADPY[Nle]C | – | – | 0.16 | 43.8
4 | BCY13052 (linker I:4-I:11-I:18, II:1-II:8-II:15 via TATA (inferred); not fully specified (N-terminus); also: chain 2: linker at dLys(PYA)4 (place not given here by letters), linker N-(acid-PEG3)-N-bis(PEG3-azide) joins N-terminus of chain 1 to dLys(PYA) of chain 2) peptide 1: [dA][hArg]DC[Hyp][Cba]VNPLCLEP[dD]WTC[dA] peptide 2: Ac-C[tBuAla]PE[dK](Pent4ynoyl)PYCFADPY[Nle]CA | – | – | 0.21 | 32.9
5 | BCY14050 (BCY8928: Ac-(SEQ ID NO: 11)-A; TATA; linker at dLys(PYA)4; BCY13918: A[HArg]D-(SEQ ID NO: 157); TATA; linker at N-terminus) peptide 1: AXDCXLVNPLCLXPDWXC peptide 2: CXPEXPYCFADPYXCA | 2.05 | 1.91 | – | –
6 | BCY13276 (linker I:4-I:11-I:18, II:1-II:8-II:15 via TATA; not fully specified (N-terminus, bridges); also: linker joins chain 1 to two chain 2 copies via PYA triazoles) peptide 1: [NMeA][hArg]DC[Hyp]LVNPLCLEP[dD]WTC peptide 2: Ac-C[tBuAla]PE[dK](Pent4ynoyl)PYCFADPY[Nle]CA | – | – | 0.1 | 50.5
7 | BCY12725 (linker I:4-I:11-I:18, II:1-II:8-II:15 via TATA; not fully specified (bridges); reading uncertain; also: two CD137 bicycles per complex (EphA2:CD137 1:2)) peptide 1: A[hArg]DC[Hyp]LVNPLCLHP[dD]W[hArg]C peptide 2: Ac-C[tBuAla]PE[dK(PYA)]PYCFANPY[Nle]C | 0.1 | 0.7 | – | –
8 | BCY13050 (linker I:4-I:11-I:18, II:1-II:8-II:15 via TATA; not fully specified (N-terminus, bridges); also: linker joins chain 1 to two chain 2 copies via PYA triazoles) peptide 1: A[hArg]DC[Hyp][Cba]VNPLCLHP[dD]W[hArg]C peptide 2: Ac-C[tBuAla]PE[dK](Pent4ynoyl)PYCFADPY[Nle]CA | – | – | 0.09 | 42.5
9 | BCY13279 (linker I:1-I:8-I:15, II:1-II:8-II:15 via TATA (inferred); also: linker N-(acid-PEG3)-N-bis(PEG3-azide) on C-terminal dK of chain 1, joins two chain 2 copies via PYA triazoles) peptide 1: Ac-C[Hyp]LVNPLCLHP[dD]W[hArg]CL[dH]G[dK] peptide 2: Ac-C[tBuAla]PE[dK](Pent4ynoyl)PYCFADPY[Nle]CA | 4.74 | 2.08 | – | –
10 | BCY13138 (linker I:4-I:11-I:18, II:1-II:8-II:15 via TATA (inferred); not fully specified (N-terminus); reading uncertain; also: linker joins chain 1 to two chain 2 copies via PYA triazoles) peptide 1: A[hArg]DC[Hyp]LVNPLCLEP[dD]WTC peptide 2: [Mpa][tBuAla]PE[dK(PYA)]PYCFADPY[Nle]C | – | – | 0.17 | 32.6

Next, values leading:

Row | Fold Improvement over BCY9173, EC50, PC3 [fold] | Fold Improvement over Emax (BCY9173), PC3 [fold] | EC50 (nM), PC3 co-culture [nM] | Emax (fold induction over background), PC3 (fold over background) | Binder
11 | – | – | 0.12 | 46.7 | BCY13140 (linker I:4-I:11-I:18, II:1-II:8-II:15 via TATA; not fully specified (N-terminus); also: linker joins chain 1 to two chain 2 copies via PYA triazoles) peptide 1: A[hArg]DC[Hyp]LVNPLCLEP[dD]WTC peptide 2: [Mpa][tBuAla]EE[dK](Pent4ynoyl)PYCFADPY[Nle]C
12 | 1.1 | 1.9 | – | – | BCY12724 (linker I:4-I:11-I:18, II:1-II:8-II:15 via TATA; not fully specified (bridges); reading uncertain; also: two CD137 bicycles per complex (EphA2:CD137 1:2)) peptide 1: A[hArg]DC[Hyp]LVNPLCLHP[dD]W[hArg]C peptide 2: Ac-C[tBuAla]PE[dK(PYA)]PYCFADPY[Nle]C
13 | 4.16 | 1.89 | – | – | BCY14052 (BCY8928: Ac-(SEQ ID NO: 11)-A; TATA; linker at dLys(PYA)4; BCY13920: A[HArg]D-(SEQ ID NO: 159); TATA; linker at N-terminus) peptide 1: AXDCXLVNPLCLFPDWXC peptide 2: CXPEXPYCFADPYXCA
14 | – | – | 0.21 | 37 | BCY13051 (linker I:4-I:11-I:18, II:1-II:8-II:15 via TATA; not fully specified (N-terminus, bridges); also: linker joins chain 1 to two chain 2 copies via PYA triazoles) peptide 1: A[hArg]DC[Hyp][Cba]VNPLCLEP[dD]WTC peptide 2: Ac-C[tBuAla]PE[dK](Pent4ynoyl)PYCFADPY[Nle]CA
15 | – | – | 0.07 | 46.4 | BCY13047 (linker I:4-I:11-I:18, II:1-II:8-II:15 via TATA; not fully specified (N-terminus, bridges); reading uncertain; also: two CD137 bicycles per complex (EphA2:CD137 1:2)) peptide 1: A[hArg]DC[Hyp]LVNPLCL[Dip]P[dD]WTC peptide 2: Ac-C[tBuAla]PE[dK(PYA)]PYCFADPY[Nle]CA
16 | – | – | 0.1 | 42.5 | BCY13270 (linker I:4-I:11-I:18, II:1-II:8-II:15 via TATA; not fully specified (N-terminus, bridges); also: linker joins chain 1 to two chain 2 copies via PYA triazoles) peptide 1: A[hArg]DC[Hyp]LVNPLCLHP[d1Nal]W[hArg]C peptide 2: Ac-C[tBuAla]PE[dK](Pent4ynoyl)PYCFADPY[Nle]CA
17 | 2.2 | 1.8 | – | – | BCY12723 (linker I:4-I:11-I:18, II:1-II:8-II:15 via TATA; not fully specified (bridges); reading uncertain; also: two CD137 bicycles per complex (EphA2:CD137 1:2)) peptide 1: A[hArg]DC[Hyp]LVNPLCLHP[dD]W[hArg]C peptide 2: Ac-C[tBuAla]EE[dK(PYA)]PYCFADPY[Nle]C
18 | – | – | 0.08 | 47.5 | BCY13275 (linker I:4-I:11-I:18, II:1-II:8-II:15 via TATA; not fully specified (N-terminus, bridges); also: linker joins chain 1 to two chain 2 copies via PYA triazoles) peptide 1: [NMeA][hArg]DC[Hyp]LVNPLCLHP[dD]W[hArg]C peptide 2: Ac-C[tBuAla]PE[dK](Pent4ynoyl)PYCFADPY[Nle]CA
19 | 2.3 | 1.8 | – | – | heterotandem bicyclic peptide complex BCY12491 (linker I:4-I:11-I:18, II:1-II:8-II:15 via TATA (inferred); also: N-(acid-PEG3)-N-bis(PEG3-azide) linker at chain 1 N-terminus, joined to dLys(PYA)4 of two BCY8928 chains (1:2 complex)) peptide 1: A[hArg]DC[Hyp]LVNPLCLHP[dD]W[hArg]C peptide 2: Ac-C[tBuAla]PE[dK](Pent4ynoyl)PYCFADPY[Nle]CA
